This note sets out measurements from paper PMC9259494.

Assay in all cases: cryo-EM structure; single-particle cryo-EM of the co-purified R388 T4SS complex (VirB3-VirB10); 50 mM HEPES pH 7.6, 200 mM sodium acetate, 0.1% digitonin, 0.05 mM TDAO; maps of O-layer, I-layer, stalk, IMC protomer near-atomic, arches from the 6.18 Å map
For test [1], the target named is TrwE/VirB10 with Strep tag (R388 T4SS) (plasmid R388).
For test [2], the target named is TrwF/VirB9 (R388 T4SS) (plasmid R388).
Test [3] concerns the target TrwG/VirB8 (R388 T4SS) (plasmid R388).
Test [4] has as its target TrwI/VirB6 (R388 T4SS) (plasmid R388).
Test [5] concerns the target TrwJ/VirB5 (R388 T4SS) (plasmid R388).
Test [6] has as its target TrwK/VirB4 (R388 T4SS) (plasmid R388).

Take “TrwE/VirB10 with Strep tag (R388 T4SS) (natural protein)”: the stoichiometry N – broadly, a count of units in the complex or per binding partner – in test [1] is 14.
“TrwF/VirB9 (R388 T4SS) (natural protein)” came in with a stoichiometry N in test [2] of 16.
In test [3], “TrwG/VirB8 (R388 T4SS) (natural protein)” yielded a stoichiometry N of 18.
“TrwI/VirB6 (R388 T4SS) (natural protein)” registered a stoichiometry N in test [4] of 5.
Take “TrwJ/VirB5 (R388 T4SS) (natural protein)”: the stoichiometry N in test [5] worked out at 5.
In test [6], “TrwK/VirB4 (R388 T4SS) (natural protein)” had a stoichiometry N of 12.
